Measurements taken from patent US20180362665A1.

Tests used:
[1] = target: human ADAMTS13 (in normal human plasma) (human) (UniProt Q76LX8); assay: cell-based or functional assay
[2] = target: human ADAMTS13 (in normal human plasma) (human) (UniProt Q76LX8); assay: sandwich ELISA, antibody coated 10 to 0.02 µg/mL, constant 15% NHP, detection with biotinylated 17G2 and 19H4

Sequence of human ADAMTS13 (in normal human plasma) (human) (Q76LX8 75-1427): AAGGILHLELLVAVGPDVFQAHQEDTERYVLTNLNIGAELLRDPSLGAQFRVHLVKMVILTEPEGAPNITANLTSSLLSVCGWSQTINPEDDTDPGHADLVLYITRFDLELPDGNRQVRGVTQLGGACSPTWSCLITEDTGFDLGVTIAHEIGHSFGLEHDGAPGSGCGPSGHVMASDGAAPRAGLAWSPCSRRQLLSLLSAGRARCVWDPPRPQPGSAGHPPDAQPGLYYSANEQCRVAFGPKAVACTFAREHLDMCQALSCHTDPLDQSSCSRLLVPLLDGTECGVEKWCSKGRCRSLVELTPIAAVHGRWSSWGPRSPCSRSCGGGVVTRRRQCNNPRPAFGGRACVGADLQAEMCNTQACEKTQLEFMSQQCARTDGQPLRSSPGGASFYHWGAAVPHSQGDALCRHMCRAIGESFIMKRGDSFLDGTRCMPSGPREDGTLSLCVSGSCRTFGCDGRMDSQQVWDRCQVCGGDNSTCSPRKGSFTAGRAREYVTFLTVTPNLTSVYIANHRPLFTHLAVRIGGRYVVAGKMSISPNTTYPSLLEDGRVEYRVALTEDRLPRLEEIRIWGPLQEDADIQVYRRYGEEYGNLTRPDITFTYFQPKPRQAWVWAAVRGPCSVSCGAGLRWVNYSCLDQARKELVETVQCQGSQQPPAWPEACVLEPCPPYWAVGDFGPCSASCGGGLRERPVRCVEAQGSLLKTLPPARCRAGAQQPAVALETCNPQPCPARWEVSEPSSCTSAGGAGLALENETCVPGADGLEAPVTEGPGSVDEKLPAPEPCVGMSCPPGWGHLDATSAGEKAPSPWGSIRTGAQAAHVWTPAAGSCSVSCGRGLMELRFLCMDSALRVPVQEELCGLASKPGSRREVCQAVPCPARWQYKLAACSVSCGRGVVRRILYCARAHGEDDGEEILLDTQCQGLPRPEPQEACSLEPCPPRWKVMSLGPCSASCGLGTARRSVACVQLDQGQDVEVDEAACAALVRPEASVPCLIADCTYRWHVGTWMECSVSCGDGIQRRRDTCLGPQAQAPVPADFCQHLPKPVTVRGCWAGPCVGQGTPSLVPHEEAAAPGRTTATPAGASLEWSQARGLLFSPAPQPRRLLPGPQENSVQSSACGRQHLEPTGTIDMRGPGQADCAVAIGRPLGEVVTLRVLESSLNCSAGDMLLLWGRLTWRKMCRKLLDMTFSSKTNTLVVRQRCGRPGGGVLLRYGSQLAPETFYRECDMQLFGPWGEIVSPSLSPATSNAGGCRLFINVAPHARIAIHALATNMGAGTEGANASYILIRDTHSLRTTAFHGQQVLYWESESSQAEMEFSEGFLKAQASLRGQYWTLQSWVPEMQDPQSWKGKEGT

half maximal inhibitory concentration (IC50) of ADAMTS13 activity in normal human plasma, FRETS-VWF73 assay [1]: 0.47 µg/mL
half maximal binding (Kd) [2]: 0.51 µg/mL
B1: anti-ADAMTS13 monoclonal antibody 17C7 (antibody, V domains shown)
VH: EVQLVESGGDLVKSGGSLKLSCAASGFIFSNYAMSWVRQTPEKRLEWGATITTGGFYTFYSDSVKGRFTISRDNAKNTLYLQMSSLRSEDTAMYYCARHRYDDYYALDYWGQGTSVTVSS
VL: ENVLTQSPAIMSTSPGEKVTMTCNVSSSVSYMRWFQQKSSTSPKLWIYDTSKLASGVPGRFSGSGSGHSYSLTISSMEADDVATYYCFQGNGYPLTFGAGTKLELK
